Assay [1] deals with macaque PD-L1 on CHO-cynoPD-L1 stable cells (macaque, UniProt Q9NZQ7 19-290 (human entry)). The assay can be described thus: flow cytometry, antibody titration on CHO-cynoPD-L1 cells, MFI-APC.
In assay [2] the target is T1, human PD-L1 full-length protein on CHO-hPD-L1 stable cells (human, UniProt Q9NZQ7 19-290).
T1 construct: also called membrane protein PD-L1
The assay can be described thus: flow cytometry, antibody titration on CHO-hPD-L1 cells, MFI-APC. On the technique in general: Flow cytometry measures light scatter and fluorescence of single cells or particles in a stream.

The target in assay [3] is T2, human CD86 protein (Acrobiosystem), hCD86 hFc (human, UniProt P42081 26-247, limits assumed).
T2 construct: Bought; also called B7-2; not shown: human Fc
T2 sequence (looked up): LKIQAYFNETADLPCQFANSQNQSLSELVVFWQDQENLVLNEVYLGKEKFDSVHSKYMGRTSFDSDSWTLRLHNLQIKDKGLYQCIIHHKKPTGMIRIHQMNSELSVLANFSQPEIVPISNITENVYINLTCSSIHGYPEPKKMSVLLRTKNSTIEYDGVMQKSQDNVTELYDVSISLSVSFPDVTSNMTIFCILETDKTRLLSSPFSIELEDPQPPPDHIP
The assay can be described thus: ELISA on coated hCD86 hFc. As to the method:
(§1) Supernatant was discarded; a blocking solution (1×PBS+1% BSA) was added in 200 μL/well; and blocking was performed for 1 h at 37° C. […] Washing was performed for 3 times with the 1×PBS. HRP-labeled goat anti-mouse IgG (sigma A0168-1ML) was added in 100 μL/well; incubation was performed for 30 min at 37° C. in a standing manner; and after washing was performed for 3 times with the 1×PBS, a color reaction was performed.
In general terms: ELISA stands for enzyme-linked immunosorbent assay.

Assay [4] addresses T3, human ICOSLG protein (Acrobiosystem), hICOSLGhFc (human, UniProt O75144 19-258, limits assumed).
T3 construct: Bought; also called B7-H2; not shown: human Fc
T3 sequence (looked up): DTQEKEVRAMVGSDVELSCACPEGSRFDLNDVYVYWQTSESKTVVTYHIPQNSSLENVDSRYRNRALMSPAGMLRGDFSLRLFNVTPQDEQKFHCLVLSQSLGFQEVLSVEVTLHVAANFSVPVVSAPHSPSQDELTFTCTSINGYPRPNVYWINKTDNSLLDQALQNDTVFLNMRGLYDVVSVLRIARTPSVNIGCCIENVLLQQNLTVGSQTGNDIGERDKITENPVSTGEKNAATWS
The assay can be described thus: ELISA on coated hICOSLG hFc. How it is done:
as §1

Experimental findings from US20240301069A1 (GUANGDONG FAPON BIOPHARMA, published 2024) are described below.

T1 sequence (Q9NZQ7 19-290 limits assumed): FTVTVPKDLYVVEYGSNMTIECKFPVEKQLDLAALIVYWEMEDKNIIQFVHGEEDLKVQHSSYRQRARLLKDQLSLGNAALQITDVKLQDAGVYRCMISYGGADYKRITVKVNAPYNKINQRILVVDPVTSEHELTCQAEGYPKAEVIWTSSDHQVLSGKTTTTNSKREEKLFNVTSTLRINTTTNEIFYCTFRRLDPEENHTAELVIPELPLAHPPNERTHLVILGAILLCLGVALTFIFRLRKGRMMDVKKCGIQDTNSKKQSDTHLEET
Chain of macaque PD-L1 on CHO-cynoPD-L1 stable cells (Q9NZQ7 other isoform, or with tags, fused parts or gaps limits assumed): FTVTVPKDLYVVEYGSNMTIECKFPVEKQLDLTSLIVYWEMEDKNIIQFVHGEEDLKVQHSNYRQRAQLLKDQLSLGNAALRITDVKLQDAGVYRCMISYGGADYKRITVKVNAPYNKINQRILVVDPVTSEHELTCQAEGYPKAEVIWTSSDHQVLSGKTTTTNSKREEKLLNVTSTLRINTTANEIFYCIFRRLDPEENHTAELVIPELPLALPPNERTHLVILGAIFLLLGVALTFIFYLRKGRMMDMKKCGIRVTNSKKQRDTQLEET

B1: F016-21 (antibody, V domains shown)
VH: EVQLQQSGPELVKPGASVKMSCKASGYTFTDYVMHWVKQKPGQGLEWIGYINPYNDGTKFNEKFKGKATLTSDKSSSTAYMELSSLTSEDSAVYYCAKQTLDYWGQGTSVTVSS
VL: DIVLTQSPASLAVSLGQRATISCRASESVEYFGTTLMQWYQQRPGQPPKLLIYAASNVESGVPARFSGSGSGTDFSLNIHPVEEDDIAMYFCQQSRKVPYTFGGGTKLEIKR
notes: Mouse hybridoma monoclonal antibody purified from clone supernatant; also called anti-human PD-L1 antibody F016-21
By EC50 is commonly meant the concentration needed to bring the measured effect to its halfway point. High values mean a less potent agent, low ones a more potent agent. Turning to B1, the values for the EC50 in assay [1] and in assay [2] were 0.947 nM and 0.502 nM, respectively. For the same molecule, the binding result in assay [3] and in assay [4] was “no binding (tested: 10 µg/mL)” in each case.
